Among the data in the RNAGym collection of RNA variant scans (doi:10.7554/elife.90254) are self-cleavage values, retold here.

The chains are these.
B1: LINE1-mini (parent)
chain: GGCAGAGCUCAACACAGCGUGGCAAAGUGGCUGUGGCUAGACUGCC

The variants in this data set derive from B1. Description: self-cleavage, relative activity (ratio to wild type); higher = more cleavage; in vitro, sequencing; the parent is a self-cleaving ribozyme.
Turning to GGCAGAGCUCAACACAGCGUGGAAAAGUGGGUGUGGCUAGACUGCC, the self-cleavage was 0.08. The figure for GGCAGAGCUCAACACAGCGUGGAAAAGUGGUUGUGGCUAGACUGCC is 0.45; for GGCAGAGCUCAACACAGCGUGGAAAAGUGGAUGUGGCUAGACUGCC it is 0.26. Take GGCAGAGCUCAACACAGCGUGGAAAAGUGGCUGUGGCUUGACUGCC: the self-cleavage is 0.73. Regarding GGCAGAGCUCAACACAGCGUGGAAAAGUGGCUGUGGCUGGACUGCC, the self-cleavage is 0.08.

Take GGCAGAGCUCAACACAGCGUGGAAAAGUGGCUGUGGCUCGACUGCC: the self-cleavage was 0.27. GGCAGAGCUCAACACAGCGUGUCAAAGUGGCUGUGGCUAGACUACC: the self-cleavage came to 0.85. As for GGCAGAGCUCAACACAGCGUGUCAAAGUGGCUGUGGCUAGACUUCC, the self-cleavage is 0.27.

As to GGCAGAGCUCAACACAGCGUGUCAAAGUGGCUGUGGCUAGACUCCC, the self-cleavage was found to be 0.34. On to GGCAGAGCUCAACACAGCGUGGAAAAGUGGCUGUGGCUAGUCUGCC, for which the self-cleavage is 0.84. Regarding GGCAGAGCUCAACACAGCGUGGAAAAGUGGCUGUGGCUAGGCUGCC, the self-cleavage worked out at 0.43. The figure for GGCAGAGCUCAACACAGCGUGGAAAAGUGGCUGUGGCUAGCCUGCC is 0.05; for GGCAGAGCUCAACACAGCGUGGAAACGUGGCUGUGGCUAGACUGCC it is 0.98. Then GGCAGAGCUCAACACAGCGUGGAAAGGUGGCUGUGGCUAGACUGCC, with 0.94. Take GGCAGAGCUCAACACAGCGUGGAAAUGUGGCUGUGGCUAGACUGCC: the self-cleavage stood at 0.88.

In the case of GGCAGAGCUCAACACAGCGUGUCAAAGUGGCUGUGGCUAUACUGCC, the self-cleavage was found to be 0.15.

On to GGCAGAGCUCAACACAGCGUGUCAAAGUGGCUGUGGCUAAACUGCC, for which the self-cleavage came to 0.2.

On to GGCAGAGCUCAACACAGCGUGUCAAAGUGGCUGUGGCUACACUGCC, for which the self-cleavage is 0.18. Take GGCAGAGCUCAACACAGCGUGGAAAAGUGGCUGUGGCUAGACUGCC: the self-cleavage came to 1.01. The figure for GGCAGAGCUCAACACAGCGUGGAAAAGUGGCUGUGGCUAGAAUGCC is 0.3; for GGCAGAGCUCAACACAGCGUGGAAAAGUGGCUGUGGCUAGAGUGCC it is 0.06.

As for GGCAGAGCUCAACACAGCGUGGAAAAGUGGCUGUGGCUAGAUUGCC, the self-cleavage stood at 0.52. Consider GGCAGAGCUCAACACAGCGUGGAAAAGUGGCUGUGGGUAGACUGCC, for which the self-cleavage amounted to 0.02. For the variant GGCAGAGCUCAACACAGCGUGGAAAAGUGGCUGUGGAUAGACUGCC, the self-cleavage came out at 0.06.

Turning to GGCAGAGCUCAACACAGCGUGGAAAAGUGGCUGUGGUUAGACUGCC, the self-cleavage came out at 0.03. Turning to GGCAGAGCUCAACACAGCGUGUCAAAGUGGCUUUGGCUAGACUGCC, the self-cleavage was 0.28. For the variant GGCAGAGCUCAACACAGCGUGUCAAAGUGGCUGAGGCUAGACUGCC, the self-cleavage came out at 0.19. On to GGCAGAGCUCAACACAGCGUGUCAAAGUGGCUGGGGCUAGACUGCC, for which the self-cleavage was 0.26. Then GGCAGAGCUCAACACAGCGUGUCAAAGUGGCUGCGGCUAGACUGCC, with 0.44; and GGCAGAGCUCAACACAGCGUGGAAAAGUGGCUGUGGCUAGACUGUC, with 1.97. Regarding GGCAGAGCUCAACACAGCGUGGAAAAGUGGCUGUGGCUAGACUGGC, the self-cleavage is 0.42. For the variant GGCAGAGCUCAACACAGCGUGGAAAAGUGGCUGUGGCUAGACUGAC, the self-cleavage came out at 1.12.

Regarding GGCAGAGCUCAACACAGCGUGGACAAGUGGCUGUGGCUAGACUGCC, the self-cleavage stood at 0.85. Consider GGCAGAGCUCAACACAGCGUGGAGAAGUGGCUGUGGCUAGACUGCC, for which the self-cleavage came out at 0.53.

For GGCAGAGCUCAACACAGCGUGGAUAAGUGGCUGUGGCUAGACUGCC, the self-cleavage stood at 1.

GGCAGAGCUCAACACAGCGUGUCAAAGAGGCUGUGGCUAGACUGCC: the self-cleavage is 0.58.

As for GGCAGAGCUCAACACAGCGUGUCAAAGGGGCUGUGGCUAGACUGCC, the self-cleavage is 0.83. GGCAGAGCUCAACACAGCGUGUCAAAGCGGCUGUGGCUAGACUGCC: the self-cleavage amounted to 0.42. As to GGCAGAGCUCAACACAGCGUGUCAAAGUGGCUGUUGCUAGACUGCC, the self-cleavage turned out to be 0.39. The figure for GGCAGAGCUCAACACAGCGUGUCAAAGUGGCUGUCGCUAGACUGCC is 0.22; for GGCAGAGCUCAACACAGCGUGUCAAAGUGGCUGUAGCUAGACUGCC it is 0.15. On to GGCAGAGCUCAACACAGCGUGUCAAAGUGGCUGUGGCGAGACUGCC, for which the self-cleavage stood at 0.04. Regarding GGCAGAGCUCAACACAGCGUGUCAAAGUGGCUGUGGCCAGACUGCC, the self-cleavage came to 2.12.

Regarding GGCAGAGCUCAACACAGCGUGUCAAAGUGGCUGUGGCAAGACUGCC, the self-cleavage came out at 0.46. Turning to GGCAGAGCUCAACACAGCGUGUCAAAGUGGCGGUGGCUAGACUGCC, the self-cleavage turned out to be 0.15. Turning to GGCAGAGCUCAACACAGCGUGUCAAAGUGGCCGUGGCUAGACUGCC, the self-cleavage was 0.6. Then GGCAGAGCUCAACACAGCGUGUCAAAGUGGCAGUGGCUAGACUGCC, with 0.13. As to GGCAGAGCUCAACACAGCGUGUCAAAGUGGCUGUGUCUAGACUGCC, the self-cleavage was found to be 0.06.

Take GGCAGAGCUCAACACAGCGUGUCAAAGUGGCUGUGCCUAGACUGCC: the self-cleavage was found to be 0.1.

Regarding GGCAGAGCUCAACACAGCGUGUCAAAGUGGCUGUGACUAGACUGCC, the self-cleavage was determined as 0.15. GGCAGAGCUCAACACAGCGUGGAAUAGUGGCUGUGGCUAGACUGCC: the self-cleavage came to 0.78. On to GGCAGAGCUCAACACAGCGUGGAACAGUGGCUGUGGCUAGACUGCC, for which the self-cleavage stood at 0.61. As for GGCAGAGCUCAACACAGCGUGGAAGAGUGGCUGUGGCUAGACUGCC, the self-cleavage was 0.49. In the case of GGCAGAGCUCAACACAGCGUGUCAAAGUGGCUGUGGCUAGACAGCC, the self-cleavage was found to be 0.06. Consider GGCAGAGCUCAACACAGCGUGUCAAAGUGGCUGUGGCUAGACGGCC, for which the self-cleavage came out at 0.03.

Consider GGCAGAGCUCAACACAGCGUGUCAAAGUGGCUGUGGCUAGACCGCC, for which the self-cleavage was 0.18.
